# Data taken from patent US20260116991A1 (HAINAN SIMCERE ZAIMING PHARMACEUTICAL, published 2026).
# Legend:
# monkey GPC3-His protein [1] = target: T1, monkey GPC3-His protein (monkey); assay: ELISA, monkey GPC3-His coated; antibody 0.02 nM
# T1 construct: Bought protein; also called monkey GPC3 protein
# Procedure: (§1) The specific method is described as follows: The antigen protein was diluted with PBS to a final concentration of 1 μg/mL, and the diluent was added to a 96-well ELISA plate at 50 μL/well. The plate was sealed with a plastic film and incubated at 4° C. overnight, washed twice with PBS the next day, and a blocking solution [PBS+2% (w/w) BSA] was added for blocking at room temperature for 2 h. […] After incubation at 37° C. for 2 h, the plate was washed 3 times with PBS. A horseradish peroxidase (HRP)-labeled secondary antibody (purchased from Merck, Cat. No. AP113P) was added for incubation at 37° C. for 1 h, and the plate was washed 5 times with PBS. A TMB substrate was added at 50 μL/well for incubation at room temperature for 10 min, then a stop solution (1.0M HCl) was added at 50 μL/well.
# GPC3 on HepG2 cells = target: T2, GPC3 on HepG2 cells (human, UniProt P51654 25-554); assay: FACS on HepG2 cells
# T2 construct: whole, on cells; also called glypican-3
# Procedure: The desired cells were expanded to a logarithmic growth phase in a T-75 cell culture flask, the medium was removed by pipetting, and the cells were washed twice with a PBS buffer, and digested with trypsin. Then a complete medium was added to stop the digestion, and the cells were blown into a single cell suspension. After counting, the cells were centrifuged, and the cell pellet was resuspended with an FACS buffer (PBS+2% fetal bovine serum) to 2×10⁶ cells/mL. The cell resuspension solution was added to a 96-well FACS reaction plate at 50 μl/well, and a humanized antibody sample to be tested was added at 50 μl/well for incubation at 4° C. for 1 h. […] After the plate was centrifuged and washed 3 times with a PBS buffer, 100 μl of the resulting solution was assayed and analyzed by FACS (FACS Canto™, purchased from BD Biosciences). Data analysis was performed by software (FlowJo) to obtain the mean fluorescence intensity (MFI) of the cells. Then, analysis was performed by software (GraphPad Prism8), data were fitted, and EC₅₀ values were calculated.
# monkey GPC3-His protein [2] = target: T1, monkey GPC3-His protein; assay: ELISA, monkey GPC3-His coated; antibody 0.53 nM
# Procedure: as §1
# monkey GPC3-His protein [3] = target: T1, monkey GPC3-His protein; assay: ELISA, monkey GPC3-His coated; antibody 66.66 nM
# Procedure: as §1
# monkey GPC3-His protein [4] = target: T1, monkey GPC3-His protein; assay: ELISA, monkey GPC3-His coated; antibody 0.0008 nM
# Procedure: as §1
# monkey GPC3-His protein [5] = target: T1, monkey GPC3-His protein; assay: ELISA, monkey GPC3-His coated; antibody 0.004 nM
# Procedure: as §1
# monkey GPC3-His protein [6] = target: T1, monkey GPC3-His protein; assay: ELISA, monkey GPC3-His coated; antibody 0.11 nM
# Procedure: as §1
# monkey GPC3-His protein [7] = target: T1, monkey GPC3-His protein; assay: ELISA, monkey GPC3-His coated; antibody 2.67 nM
# Procedure: as §1
# monkey GPC3-His protein [8] = target: T1, monkey GPC3-His protein; assay: ELISA, monkey GPC3-His coated; antibody 13.33 nM
# Procedure: as §1
# murine GPC3-his protein [9] = target: T3, murine GPC3-his protein (murine, UniProt Q8CFZ4 25-558, limits assumed); assay: ELISA, murine GPC3-his coated; antibody 0.0008 nM
# T3 construct: Bought protein; also called mouse GPC3 protein; murine GPC3 protein; not shown: His tag
# murine GPC3-his protein [10] = target: T3, murine GPC3-his protein; assay: ELISA, murine GPC3-his coated; antibody 13.33 nM
# Procedure: as §1
# murine GPC3-his protein [11] = target: T3, murine GPC3-his protein; assay: ELISA, murine GPC3-his coated; antibody 2.67 nM
# Procedure: as §1
# murine GPC3-his protein [12] = target: T3, murine GPC3-his protein; assay: ELISA, murine GPC3-his coated; antibody 0.53 nM
# Procedure: as §1
# murine GPC3-his protein [13] = target: T3, murine GPC3-his protein; assay: ELISA, murine GPC3-his coated; antibody 0.11 nM
# Procedure: as §1
# murine GPC3-his protein [14] = target: T3, murine GPC3-his protein; assay: ELISA, murine GPC3-his coated; antibody 0.02 nM
# Procedure: as §1
# murine GPC3-his protein [15] = target: T3, murine GPC3-his protein; assay: ELISA, murine GPC3-his coated; antibody 0.004 nM
# Procedure: as §1
# murine GPC3-his protein [16] = target: T3, murine GPC3-his protein; assay: ELISA, murine GPC3-his coated; antibody 66.66 nM
# Procedure: as §1
# T3 sequence (Q8CFZ4 25-558 limits assumed): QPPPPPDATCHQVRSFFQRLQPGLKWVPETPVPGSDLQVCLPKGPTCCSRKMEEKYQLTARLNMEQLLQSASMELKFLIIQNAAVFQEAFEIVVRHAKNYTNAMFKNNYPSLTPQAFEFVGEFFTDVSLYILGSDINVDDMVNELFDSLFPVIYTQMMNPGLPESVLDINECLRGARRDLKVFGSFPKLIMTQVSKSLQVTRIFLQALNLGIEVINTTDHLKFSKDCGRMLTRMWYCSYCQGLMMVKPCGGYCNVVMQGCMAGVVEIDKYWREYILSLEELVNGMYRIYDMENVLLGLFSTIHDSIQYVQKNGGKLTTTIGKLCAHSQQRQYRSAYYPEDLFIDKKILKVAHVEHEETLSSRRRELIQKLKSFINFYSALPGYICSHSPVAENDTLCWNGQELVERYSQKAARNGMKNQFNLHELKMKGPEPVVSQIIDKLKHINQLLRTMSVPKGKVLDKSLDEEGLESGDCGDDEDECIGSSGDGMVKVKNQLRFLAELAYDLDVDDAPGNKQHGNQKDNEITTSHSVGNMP
Binder,OD450 nm (monkey GPC3-His protein [1]),EC50 (GPC3 on HepG2 cells),Max MFI (GPC3 on HepG2 cells),OD450 nm (monkey GPC3-His protein [2]),OD450 nm (monkey GPC3-His protein [3]),OD450 nm (monkey GPC3-His protein [4]),OD450 nm (monkey GPC3-His protein [5]),OD450 nm (monkey GPC3-His protein [6]),OD450 nm (monkey GPC3-His protein [7]),OD450 nm (monkey GPC3-His protein [8]),OD450 nm (murine GPC3-his protein [9]),OD450 nm (murine GPC3-his protein [10]),OD450 nm (murine GPC3-his protein [11]),OD450 nm (murine GPC3-his protein [12]),OD450 nm (murine GPC3-his protein [13]),OD450 nm (murine GPC3-his protein [14]),OD450 nm (murine GPC3-his protein [15]),OD450 nm (murine GPC3-his protein [16])
"hAb001H1L1 (antibody, human IgG1, V domains shown, Humanized F2.169.2, H1+L1) VH: EVQLVESGGGLVQPGGSLRLSCAASGFSFNTNAMNWVRQAPGKGLEWVGRIRSKSNNYATYYADSVKDRFTISRDDSKNSLYLQMNSLKTEDTAVYYCVRDGYYVLFAYWGQGTLVTVSS VL: DIVMTQTPLSLPVTPGEPASISCRFSQSIVNSNGNTYLEWFLQKPGQSPQLLIYKVSNRFSGVPDRFSGSGSGTDFTLKISRVEAEDVGVYYCFQGSHVPFTFGQGTKLEIK",1.08,–,–,2.46,2.55,0.198,0.373,1.96,2.54,2.55,0.239,2.82,2.69,2.8,2.31,1.32,0.48,2.64
"hAb001H1L1a (antibody, human IgG1, V domains shown, Humanized F2.169.2, H1+L1a) VH: EVQLVESGGGLVQPGGSLRLSCAASGFSFNTNAMNWVRQAPGKGLEWVGRIRSKSNNYATYYADSVKDRFTISRDDSKNSLYLQMNSLKTEDTAVYYCVRDGYYVLFAYWGQGTLVTVSS VL: DIVMTQTPLSLPVTPGEPASISCRFSQSIVNSDGNTYLEWFLQKPGQSPQLLIYKVSNRFSGVPDRFSGSGSGTDFTLKISRVEAEDVGVYYCFQGSHVPFTFGQGTKLEIK",0.39,–,–,2.08,2.16,0.068,0.211,1.23,2.27,2.37,0.117,2.57,2.49,2.37,1.66,0.657,0.356,2.58
"hAb001H1aL1a (antibody, human IgG1, V domains shown, Humanized F2.169.2, H1a+L1a) VH: EVQLVESGGGLVQPGGSLRLSCAASGFSFNTNAMNWVRQAPGKGLEWVGRIRSKSNNYATYYADSVKGRFTISRDDSKNSLYLQMNSLKTEDTAVYYCVRDGYYVLFAYWGQGTLVTVSS VL: DIVMTQTPLSLPVTPGEPASISCRFSQSIVNSDGNTYLEWFLQKPGQSPQLLIYKVSNRFSGVPDRFSGSGSGTDFTLKISRVEAEDVGVYYCFQGSHVPFTFGQGTKLEIK",0.437,–,–,2.19,2.34,0.073,0.132,1.44,2.44,2.42,0.092,2.44,2.49,2.29,1.49,0.67,0.206,2.45
"hAb001H1aL1 (antibody, human IgG1, V domains shown, Humanized F2.169.2, H1a+L1) VH: EVQLVESGGGLVQPGGSLRLSCAASGFSFNTNAMNWVRQAPGKGLEWVGRIRSKSNNYATYYADSVKGRFTISRDDSKNSLYLQMNSLKTEDTAVYYCVRDGYYVLFAYWGQGTLVTVSS VL: DIVMTQTPLSLPVTPGEPASISCRFSQSIVNSNGNTYLEWFLQKPGQSPQLLIYKVSNRFSGVPDRFSGSGSGTDFTLKISRVEAEDVGVYYCFQGSHVPFTFGQGTKLEIK",1.03,–,–,2.36,2.52,0.201,0.379,2,2.57,2.52,0.255,2.63,2.52,2.45,1.95,1.15,0.44,2.68

# Other lines, results leading:
OD450 nm (monkey GPC3-His protein [1]),EC50 (GPC3 on HepG2 cells),Max MFI (GPC3 on HepG2 cells),OD450 nm (monkey GPC3-His protein [2]),OD450 nm (monkey GPC3-His protein [3]),OD450 nm (monkey GPC3-His protein [4]),OD450 nm (monkey GPC3-His protein [5]),OD450 nm (monkey GPC3-His protein [6]),OD450 nm (monkey GPC3-His protein [7]),OD450 nm (monkey GPC3-His protein [8]),OD450 nm (murine GPC3-his protein [9]),OD450 nm (murine GPC3-his protein [10]),OD450 nm (murine GPC3-his protein [11]),OD450 nm (murine GPC3-his protein [12]),OD450 nm (murine GPC3-his protein [13]),OD450 nm (murine GPC3-his protein [14]),OD450 nm (murine GPC3-his protein [15]),OD450 nm (murine GPC3-his protein [16]),Binder
1.1,0.84 nM,4620,2.3,2.35,0.185,0.386,1.96,2.36,2.27,–,–,–,–,–,–,–,–,"hAb003LH2L1b (antibody, human IgG1, V domains shown, Humanized F2.154.1, H2+L1b) VH: EVQLVQSGAEVKKPGSSVKVSCKASGYRFTDYEMHWVRQAPGQGLEWMGTIDPETGNTAYTQKFMDRVTITADKSTSTAYMELSSLRSEDTAVYYCTRGYSFTYWGQGTLVTVSS VL: DIVMTQTPLSLPVTPGEPASISCRSSQNIVHSNRNTYLQWYLQKPGQSPQLLIFKVSNRFSGVPDRFSGSGSGTDFTLKISRVEAEDVGVYYCFQGSHVPFTFGQGTKLEIK"
0.664,1.01 nM,4800,1.09,1.16,0.107,0.215,0.949,1.11,1.16,–,–,–,–,–,–,–,–,"hAb005LH1L1b (antibody, human IgG1, V domains shown, Humanized F3.54.12, H1+L1b) VH: EVQLVQSGAEVKKPGASVKVSCKASGYTFTDYEMHWVRQAPGQGLEWMGAIDPETGNTAYIQKFKGRVTMTTDKSTSTAYMELRSLRSDDTAVYYCTRFYSYSHWGQGTTVTVSS VL: DIVMTQTPLSLPVTPGEPASISCRSSQSLVHSNRNTYLHWYLQKPGQSPQLLIYKVSNRFSGVPDRFSGSGSGTDFTLKISRVEAEDVGVYYCSQNTHVPPTFGGGTKVEIK"
1.01,1.49 nM,4610,2.56,2.67,0.125,0.306,1.99,2.55,2.38,–,–,–,–,–,–,–,–,"hAb006LH3L1b (antibody, human IgG1, V domains shown, Humanized F3.38.7, H3+L1b) VH: EVQLVQSGAEVKKPGSSVKVSCKASGYTFTDYEIHWVRQAPGQGLEWMGAIDPKTGNTAYNQKFMGRVTLTADKSTSTAYMELSSLRSEDTAVYYCTRYFSFAYWGQGTLVTVSS VL: DIVMTQTPLSLPVTPGEPASISCRSSQTFVHSNANTYLQWYLQKPGQSPQLLIYKVSNRFSGVPDRFSGSGSGTDFTLKISRVEAEDVGVYYCFQGSHVPYTFGQGTKLEIK"
1.05,–,–,2.47,2.68,0.304,0.4,2.11,2.59,2.64,0.277,2.62,2.59,2.48,2.1,1.27,0.524,2.62,"hAb001H2L1 (antibody, human IgG1, V domains shown, Humanized F2.169.2, H2+L1) VH: EVQLVESGGGLVQPGGSLRLSCAASGFSFNTNAMNWVRQAPGKGLEWVGRIRSKSNNYATYYADSVKDRFTISRDDSKSSLYLQMNSLKTEDTAVYYCVRDGYYVLFAYWGQGTLVTVSS VL: DIVMTQTPLSLPVTPGEPASISCRFSQSIVNSNGNTYLEWFLQKPGQSPQLLIYKVSNRFSGVPDRFSGSGSGTDFTLKISRVEAEDVGVYYCFQGSHVPFTFGQGTKLEIK"
1.02,–,–,2.39,2.59,0.144,0.347,1.99,2.39,2.54,0.185,2.73,2.68,2.52,2.05,1.15,0.346,2.76,"hAb001H1aL1b (antibody, human IgG1, V domains shown, Humanized F2.169.2, H1a+L1b) VH: EVQLVESGGGLVQPGGSLRLSCAASGFSFNTNAMNWVRQAPGKGLEWVGRIRSKSNNYATYYADSVKGRFTISRDDSKNSLYLQMNSLKTEDTAVYYCVRDGYYVLFAYWGQGTLVTVSS VL: DIVMTQTPLSLPVTPGEPASISCRFSQSIVNSNANTYLEWFLQKPGQSPQLLIYKVSNRFSGVPDRFSGSGSGTDFTLKISRVEAEDVGVYYCFQGSHVPFTFGQGTKLEIK"
